Reference: FireProtDB (doi:10.1074/jbc.m005861200)

B1: Cytochrome c-551 wild type, P00099 (protein)
chain: MKPYALLSLLATGTLLAQGAWAEDPEVLFKNKGCVACHAIDTKMVGPAYKDVAAKFAGQAGAEAELAQRIKNGSQGVWGPIPMPPNAVSDDEAQTLAKWVLSQK
B2: Cytochrome c-552 wild type, P15452 (protein)
chain: MKKFLLVAVVGLAGITFANEQLAKQKGCMACHDLKAKKVGPAYADVAKKYAGRKDAVDYLAGKIKKGGSGVWGSVPMPPQNVTDAEAKQLAQWILSIK

Details: pH 5, DSC, Unknown, reversible: yes, whole UniProt chain shown; for denaturant midpoint (higher = more stable): 25 °C, GdnHCl; for Tm / heat capacity change of unfolding / unfolding enthalpy (calorimetric): Thermal
[1] = Pseudomonas aeruginosa (strain ATCC 15692 / DSM 22644 / CIP 104116 / JCM 14847 / LMG 12228 / 1C / PRS 101 / PAO1)
[2] = Pseudomonas aeruginosa (strain ATCC 15692 / DSM 22644 / CIP 104116 / JCM 14847 / LMG 12228 / 1C / PRS 101 / PAO1), 47.3 °C
[3] = Hydrogenobacter thermophilus (strain DSM 6534 / IAM 12695 / TK-6)

| Protein | denaturant midpoint (higher = more stable) [1] | Tm [2] | heat capacity change of unfolding [2] | Tm [1] | heat capacity change of unfolding [1] | unfolding enthalpy (calorimetric) [1] | denaturant midpoint (higher = more stable) [3] | Tm [3] | heat capacity change of unfolding [3] | unfolding enthalpy (calorimetric) [3] |
| --- | --- | --- | --- | --- | --- | --- | --- | --- | --- | --- |
| B1 | 2.16 M | 47.3 °C | 1.07 kcal/mol/K | 47.3 °C | 0.72 kcal/mol/K | 37.7 kcal/mol |  |  |  |  |
| B2 |  |  |  |  |  |  | 4.47 M | 87.5 °C | 0.9 kcal/mol/K | 36.7 kcal/mol |
